According to article PMC7435202 (Nature Communications, 2020):

Molecular target: the molecule itself
Assay: cryo-EM structure; native full-length gB with 93k Fab fragments added in molar excess, overnight at +4 °C; Amphipol 8-35, TBS pH7.4, Superose-6; single particle, C3 symmetry imposed

B1: native, full-length VZV glycoprotein B (gB) purified from VZV-infected MeWo cells (natural protein, UniProt Q4JR05 72-931, looked up)
chain: VSPSSFYESLQVEPTQSEDITRSAHLGDGDEIREAIHKSQDAETKPTFYVCPPPTGSTIVRLEPPRTCPDYHLGKNFTEGIAVVYKENIAAYKFKATVYYKDVIVSTAWAGSSYTQITNRYADRVPIPVSEITDTIDKFGKCSSKATYVRNNHKVEAFNEDKNPQDMPLIASKYNSVGSKAWHTTNDTYMVAGTPGTYRTGTSVNCIIEEVEARSIFPYDSFGLSTGDIIYMSPFFGLRDGAYREHSNYAMDRFHQFEGYRQRDLDTRALLEPAARNFLVTPHLTVGWNWKPKRTEVCSLVKWREVEDVVRDEYAHNFRFTMKTLSTTFISETNEFNLNQIHLSQCVKEEARAIINRIYTTRYNSSHVRTGDIQTYLARGGFVVVFQPLLSNSLARLYLQELVRENTNHSPQKHPTRNTRSRRSVPVELRANRTITTTSSVEFAMLQFTYDHIQEHVNEMLARISSSWCQLQNRERALWSGLFPINPSALASTILDQRVKARILGDVISVSNCPELGSDTRIILQNSMRVSGSTTRCYSRPLISIVSLNGSGTVEGQLGTDNELIMSRDLLEPCVANHKRYFLFGHHYVYYEDYRYVREIAVHDVGMISTYVDLNLTLLKDREFMPLQVYTRDELRDTGLLDYSEIQRRNQMHSLRFYDIDKVVQYDSGTAIMQGMAQFFQGLGTAGQAVGHVVLGATGALLSTVHGFTTFLSNPFGALAVGLLVLAGLVAAFFAYRYVLKLKTSPMKALYPLTTKGLKQLPEGMDPFAEKPNATDTPIEEIGDSQNTEPSVNSGFDPDKFREAQEMIKYMTLVSAAERQESKARKKNKTSALLTSRLTGLALRNRRGYSRVRTENVTGV
notes: Varicella-zoster virus glycoprotein B, 931 amino acids, ORF31, strain pOka; cleaved by furin: both uncleaved (130 kDa) and cleaved (65 kDa) gB are present; also called native gB; full-length gB
  stoichiometry N: 3
